Measurements taken from paper PMC4414810 (ACS chemical biology, 2015).
Where no end group is shown, it is not given here.

Experiments:
[1] = molecular target: T1, HalM2 (haloduracin lanthipeptide synthetase) (Bacillus halodurans C-125); assay: fluorescence polarisation
[2] = molecular target: T1, HalM2 (haloduracin lanthipeptide …); assay: fluorescence polarisation; remark: listed apart in the source

| Binder | Kd [1] | IC50 [2] | Ki [2] |
| --- | --- | --- | --- |
| MVNSKDLRNPEFRKAQGLQFVDEVNEKELSSLAGSGDIEGR (also: 5-FAM on short synthetic peptide ligated to introduced N-terminal Cys) [fluorescein-labeled HalA2 leader peptide] | 3.7 ± 1.3 µM | – | – |
| MTNLLKEWKMPLERTHNNSNPAGDIFQELEDQDILAGIEGR [HalA1 leader peptide] | – | 4.1 ± 1.1 µM | 4.1 ± 1.1 µM |
